Experimental data taken from FireProtDB (doi:10.1073/pnas.91.22.10325).

Details: Equus caballus, pH 1.8, Thermal, HCl 20 mM, reversible: yes

Chain of Cytochrome c wild type, P00004 (P00004 whole entry): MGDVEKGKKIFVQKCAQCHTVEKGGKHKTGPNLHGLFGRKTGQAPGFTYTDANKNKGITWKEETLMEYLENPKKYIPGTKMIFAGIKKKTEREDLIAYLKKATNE

Substance: Cytochrome c wild type, P00004
- Tm (CD, NaClO4 10 mM): 25.8 °C
- heat capacity change of unfolding (CD, NaClO4 10 mM): 0.43 kcal/mol/K
- unfolding enthalpy (van 't Hoff) (CD, NaClO4 10 mM): 28.2 kcal/mol
- Tm (CD, NaClO4 20 mM): 37 °C
- heat capacity change of unfolding (CD, NaClO4 20 mM): 0.43 kcal/mol/K
- unfolding enthalpy (van 't Hoff) (CD, NaClO4 20 mM): 32.5 kcal/mol
- Tm (CD, NaClO4 50 mM): 47 °C
- heat capacity change of unfolding (CD, NaClO4 50 mM): 0.43 kcal/mol/K
- unfolding enthalpy (van 't Hoff) (CD, NaClO4 50 mM): 38 kcal/mol
- Tm (DSC, NaClO4 20 mM): 34.4 °C
- heat capacity change of unfolding (DSC, NaClO4 20 mM): 0.31 kcal/mol/K
- unfolding enthalpy (calorimetric) (DSC, NaClO4 20 mM): 32.3 kcal/mol
- unfolding enthalpy (van 't Hoff) (DSC, NaClO4 20 mM): 31.8 kcal/mol
- Tm (DSC, NaClO4 30 mM): 40 °C
- heat capacity change of unfolding (DSC, NaClO4 30 mM): 0.31 kcal/mol/K
- unfolding enthalpy (calorimetric) (DSC, NaClO4 30 mM): 31.4 kcal/mol
- unfolding enthalpy (van 't Hoff) (DSC, NaClO4 30 mM): 31.4 kcal/mol
- Tm (DSC, NaClO4 40 mM): 42.6 °C
- heat capacity change of unfolding (DSC, NaClO4 40 mM): 0.31 kcal/mol/K
- unfolding enthalpy (calorimetric) (DSC, NaClO4 40 mM): 34.9 kcal/mol
- unfolding enthalpy (van 't Hoff) (DSC, NaClO4 40 mM): 34.9 kcal/mol
- Tm (DSC, NaClO4 50 mM): 44.1 °C
- heat capacity change of unfolding (DSC, NaClO4 50 mM): 0.31 kcal/mol/K
- unfolding enthalpy (calorimetric) (DSC, NaClO4 50 mM): 33.7 kcal/mol
- unfolding enthalpy (van 't Hoff) (DSC, NaClO4 50 mM): 33.7 kcal/mol
